Source: patent publication US20160215065A1 (Genentech, published 2016)
Changes are numbered by the printed parent chain. Values joined by “and” are separate entries in the source; they are usually repeats but may differ in a detail not shown here. Equal entries are not always repeated. Where two headings read alike, the source gives them in different places.

How the values were obtained:
[1] = system: T1, internally quenched fluorogenic peptide substrate with P1-arginine
T1 sequence: IRRSSYSFKK

[2] = system: T2, internally quenched fluorogenic peptide substrate with P1-methylarginine
T2 sequence: IRRSSYSFKK

[3] = target: T3, internally quenched fluorogenic peptide substrate with P1-arginine
T3 chain: IRRSSYSFKK

[4] = target: T4, internally quenched fluorogenic peptide substrate with P1-methylarginine
T4 chain: IRRSSYSFKK

[5] = target: T5, mouse active NSP4 (mA) (mouse), Q14B24; assay: competition phage ELISA (phage IC50); soluble mA-NSP4 against plate-coated NSP4; settings: remark: other sources report otherwise
T5 chain: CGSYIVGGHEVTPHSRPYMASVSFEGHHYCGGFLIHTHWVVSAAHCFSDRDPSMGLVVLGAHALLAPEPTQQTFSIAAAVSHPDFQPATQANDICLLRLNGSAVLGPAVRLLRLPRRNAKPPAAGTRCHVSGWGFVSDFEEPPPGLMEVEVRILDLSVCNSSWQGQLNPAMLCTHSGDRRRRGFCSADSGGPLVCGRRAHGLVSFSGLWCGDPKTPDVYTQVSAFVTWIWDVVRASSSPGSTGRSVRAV

[6] = target: T5, mouse active NSP4 (mA) (mouse), Q14B24; assay: BLI affinity class in summary table; settings: remark: other sources report otherwise
[7] = target: T6, mouse zymogen NSP4 (mZ) (mouse), Q14B24; assay: BLI affinity class in summary table; settings: remark: other sources report otherwise
T6 chain: T5 chain

[8] = target: T7, recombinant mouse NSP4 (form not stated) (mouse, UniProt Q14B24 40-284, limits assumed); assay: phage competition binding assay (phage IC50); soluble mNSP4 competitor
T7 construct: also called mNSP4; soluble mNSP4
T7 sequence (looked up): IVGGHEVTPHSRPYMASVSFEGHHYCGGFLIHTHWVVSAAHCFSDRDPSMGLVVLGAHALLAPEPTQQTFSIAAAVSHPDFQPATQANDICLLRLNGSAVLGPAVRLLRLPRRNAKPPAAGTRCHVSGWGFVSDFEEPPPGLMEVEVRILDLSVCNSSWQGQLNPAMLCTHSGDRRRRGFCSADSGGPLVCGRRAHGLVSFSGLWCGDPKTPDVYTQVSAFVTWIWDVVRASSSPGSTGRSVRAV

[9] = target: T7, recombinant mouse NSP4 (form not stated); assay: ratio of phage IC50 values against the parental clone 51.WT

Molecule: Factor Xa
- cleavage of fluorogenic peptide with P1-arginine [1]: factor Xa, with a canonical S1 pocket could only cleave unmodified P1-Arg substrate
- cleavage of fluorogenic peptide with P1-methylarginine [2]: factor Xa, with a canonical S1 pocket could only cleave unmodified P1-Arg substrate

B1: human active NSP4 (hA) (protein)
chain: IIGGHEVTPHSRPYMASVRFGGQHHCGGFLLRARWVVSAAHCFSHRDLRTGLVVLGAHVLSTAEPTQQVFGIDALTTHPDYHPMTHANDICLLRLNGSAVLGPAVGLLRPPGRRARPPTAGTRCRVAGWGFVSDFEELPPGLMEAKVRVLDPDVCNSSWKGHLTLTMLCTRSGDSHRRGFCSADSGGPLVCRNRAHGLVSFSGLWCGDPKTPDVYTQVSAFVAWIWDVVRRSSPQPGPLPGTTRPPGEAA
- kcat/KM of fluorogenic peptide cleavage [3]: WT (BEVS) kcat/KM=1.1×10^4±2.1×10^3 M^-1 s^-1
- cleavage of fluorogenic peptide with P1-methylarginine [4]: NSP4 could indeed cleave after methylarginine

B2: human wild-type NSP4 produced in CHO cells, activated (protein)
chain: B1 chain
- kcat/KM of fluorogenic peptide cleavage [3]: WT (CHO) kcat/KM=7.5×10^3 ±1.1×10^3 M^-1s^-1

B3: anti-NSP4 antibody 5-2 (antibody, V domains shown)
VH: EVQLVESGGGLVQPGGSLRLSCAASGFTFSNTYISWVRQAPGKGLEWVGFIYPANGATYYADSVKGRFTISADTSKNTAYLQMNSLRAEDTAVYYCARRYRLSFDYWGQGTLVTVSS
VL: DIQMTQSPSSLSASVGDRVTITCRASQDVSTAVAWYQQKPGKAPKLLIYSASFLYSGVPSRFSGSGSGTDFTLTISSLQPEDFATYYCQQSYTTPPTFGQGTKVEIKR
- IC50 [5]: 25 nM
- Kd [6]: < 50 nM
- Kd [7]: > 50 nM and < 1000 nM

B4: affinity matured anti-NSP4 antibody clone 51.59 (Fab, V domains shown)
VH: EVQLVESGGGLVQPGGSLRLSCAASGFTFSGSGIHWVRQAPGKGLEWVAWISPTGGNTYYADSVKGRFTISADTSKNTAYLQMNSLRAEDTAVYYCARVFFHNVAFDYWGQGTLVTVSS
VL: B3 VL with S91N, Y92F, T93S, T94S
- IC50 [8]: 0.095 nM
- Affinity improvement to mNSP4 [9]: 196 fold
